Experimental data: patent US20140212423A1 (AbbVie / Abbott, published 2014)
One block for each binder: values may come before it.

Legend:
[1] = target: Repulsive guidance molecule A; assay: cell-based or functional assay
[2] = target: T1, mouse Transferrin Receptor overexpressed on Hek 293 cells (mouse, UniProt Q62351 1-763); assay: 293/mTFR cell-based assay
T1 construct: whole, on cells; also called Hek293/mTfR; 293/mTFR
Method: (§1) Meso-scale Discovery (MSD) Electrochemiluminescesnce (ECL) assays to screen for antibodies or DVDs that bind a desired target antigen expressed on the cell surface were performed as follows: Hek 293 cells overexpressing mouse Transferin Receptor were added onto MSD 96-well plates (MSD Cat# L11 XB-3, lot#2290-EA) which were blocked using blocking buffer (30% FBS Serum (Hyclone) in PBS) at 37° C. for 1 hr. After incubating at RT for 30 min with mild agitation, plates were washed with DPBS 3 times and Abs/DVDs (10,000 ng/ml) were added. After incubating for 1 hr at RT, plates were washed 3 times with DPBS and 25 ul of Goat anti human Sulfo TAG (MSD Cat# R32AC-, Lot# W001162) at 1 μg/ml is added. Following a 1 h incubation at RT for 1 hr, plates are washed and MSD read buffer is added before reading on MSD SECTOR Imager 6000. EC50 values are obtained using Xlfit4 software package

[3] = target: T1, mouse Transferrin Receptor …; assay: mTFR binding cell-based assay
Method: as §1

[4] = target: T1, mouse Transferrin Receptor …; assay: cell-based MSD-ECL binding on Hek293 cells overexpressing mouse TfR
Method: as §1

rmTfR (123-763) [5] = target: T2, rmTfR (123-763) (mouse, UniProt Q62351 123-763); assay: Biacore SPR, antibody captured via anti-human Fc, rmTfR (123-763) in solution
T2 construct: range 123-763; also called recombinant mouse transferrin receptor 123-763
Method: (§2) The BIACORE assay (Biacore, Inc, Piscataway, N.J.) was used to determine the affinity of antibodies or DVD-Ig™ with kinetic measurements of on-rate and off-rate constants. Binding of antibodies or DVD-Ig™ to a target antigen (for example, a purified recombinant target antigen) was determined by surface plasmon resonance-based measurements with a Biacore® 1000 or 3000 instrument (Biacore® AB, Uppsala, Sweden) using running HBS-EP (10 mM HEPES [pH 7.4], 150 mM NaCl, 3 mM EDTA, and 0.005% surfactant P20) at 25° C. All chemicals were obtained from Biacore® AB (Uppsala, Sweden) or otherwise from a different source as described in the text. For example, approximately 5000 RU of goat anti-human IgG, (Fcγ), fragment specific polyclonal antibody (Pierce Biotechnology Inc, Rockford, Ill.) diluted in 10 mM sodium acetate (pH 4.5) was directly immobilized across a CM5 research grade biosensor chip using a standard amine coupling kit according to manufacturer's instructions and procedures at 25 μg/ml. Unreacted moieties on the biosensor surface are blocked with ethanolamine. Modified carboxymethyl dextran surface in flowcell 2 and 4 is used as a reaction surface. Unmodified carboxymethyl dextran without goat anti-human IgG in flow cell 1 and 3 is used as the reference surface. For kinetic analysis, rate equations derived from the 1:1 Langmuir binding model were fitted simultaneously to association and dissociation phases of all eight injections (using global fit analysis) with the use of Biaevaluation 4.0.1 software. Purified antibodies or DVD-Ig™ were diluted in HEPES-buffered saline for capture across goat anti-human IgG specific reaction surfaces. Antibodies or DVD-Ig™ to be captured as a ligand (25 μg/ml) were injected over reaction matrices at a flow rate of 5 μl/min. The association and dissociation rate constants, kon (M⁻¹s⁻¹) and koff (s⁻¹) are determined under a continuous flow rate of 25 μl/min. Rate constants are derived by making kinetic binding measurements at different antigen concentrations ranging from 10-200 nM. The equilibrium dissociation constant (M) of the reaction between antibodies or DVD-Ig™s and the target antigen is then calculated from the kinetic rate constants by the following formula: KD=koff/kon. Binding is recorded as a function of time and kinetic rate constants are calculated.

rmTfR (123-763) [6] = target: T2, rmTfR (123-763); assay: Biacore SPR, DVD-Ig captured via anti-human Fc, rmTfR (123-763) in solution
Method: as §2

T2 sequence (Q62351 123-763): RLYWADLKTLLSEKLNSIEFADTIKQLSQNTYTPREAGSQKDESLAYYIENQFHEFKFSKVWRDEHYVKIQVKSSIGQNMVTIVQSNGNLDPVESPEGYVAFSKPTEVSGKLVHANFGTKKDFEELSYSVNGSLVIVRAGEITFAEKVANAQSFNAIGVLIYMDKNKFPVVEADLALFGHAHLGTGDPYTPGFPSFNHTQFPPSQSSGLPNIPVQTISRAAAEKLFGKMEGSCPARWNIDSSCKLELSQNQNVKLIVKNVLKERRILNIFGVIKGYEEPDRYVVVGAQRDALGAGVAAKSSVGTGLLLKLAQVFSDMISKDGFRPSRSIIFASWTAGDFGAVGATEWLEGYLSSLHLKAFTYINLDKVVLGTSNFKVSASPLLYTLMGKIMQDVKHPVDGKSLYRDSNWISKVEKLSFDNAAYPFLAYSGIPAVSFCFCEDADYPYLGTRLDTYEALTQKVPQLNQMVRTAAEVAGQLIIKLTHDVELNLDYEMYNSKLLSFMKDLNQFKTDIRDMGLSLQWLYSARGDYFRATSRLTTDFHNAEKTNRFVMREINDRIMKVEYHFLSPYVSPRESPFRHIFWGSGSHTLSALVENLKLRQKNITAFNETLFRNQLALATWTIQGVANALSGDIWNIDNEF
T1 sequence (Q62351 whole entry): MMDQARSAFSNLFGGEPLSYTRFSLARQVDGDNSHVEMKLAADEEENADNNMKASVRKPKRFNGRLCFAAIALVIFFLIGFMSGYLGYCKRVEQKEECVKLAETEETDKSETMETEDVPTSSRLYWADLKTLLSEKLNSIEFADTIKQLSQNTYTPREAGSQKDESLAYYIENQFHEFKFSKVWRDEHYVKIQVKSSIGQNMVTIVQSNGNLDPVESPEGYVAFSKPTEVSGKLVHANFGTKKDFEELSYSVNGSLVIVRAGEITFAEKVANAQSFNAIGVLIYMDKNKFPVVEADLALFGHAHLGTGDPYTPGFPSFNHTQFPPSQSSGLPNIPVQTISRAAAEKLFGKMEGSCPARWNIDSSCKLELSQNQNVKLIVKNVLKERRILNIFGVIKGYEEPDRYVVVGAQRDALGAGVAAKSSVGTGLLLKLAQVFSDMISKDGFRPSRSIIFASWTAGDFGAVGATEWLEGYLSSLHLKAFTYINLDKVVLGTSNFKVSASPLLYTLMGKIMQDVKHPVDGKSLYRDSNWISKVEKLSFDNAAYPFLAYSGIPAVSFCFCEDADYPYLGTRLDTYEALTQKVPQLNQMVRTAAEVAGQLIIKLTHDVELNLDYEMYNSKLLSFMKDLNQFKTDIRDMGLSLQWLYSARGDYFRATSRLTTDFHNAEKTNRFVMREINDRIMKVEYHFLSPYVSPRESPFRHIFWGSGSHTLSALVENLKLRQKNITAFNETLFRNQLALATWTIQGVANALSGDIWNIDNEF

B5: AB402 (antibody, V domains shown)
VH: EVQLVESGGGLVQPGGSLRLSCAASGFTFSNYGMHWIRQAPGKGLEWIAMIYYDSSKMNYADTVKGRFTISRDNAKNSLYLQMNSLRAEDTAVYYCAVPTSHYVVDVWGQGTTVTVSS
VL: AIQMTQSPSSLSASVGDRVTITCQASQDIGNWLAWYQQKPGKSPKLLIYGATSLADGVPSRFSGSRSGTDFTLTISSLQPEDFATYYCLQAYNTPWTFGGGTKVEIKR
notes: humanized variant of AB221; also called TfR(AB402)
EC50 [3]: 0.06 nM
EC50 [4]: 0.06 nM
Kd (rmTfR (123-763) [5]): 3.7 nM
koff (rmTfR (123-763) [5]): 6.12e-05 s⁻¹
kon (rmTfR (123-763) [5]): 16400 M⁻¹ s⁻¹

B6: RGMA(AE12-1)-GS-TfR(AB402) (bispecific antibody)
VH: EVQLVQSGAEVKKPGASVKVSCKASGYTFTSHGISWVRQAPGQGLDWMGWISPYSGNTNYAQKLQGRVTMTTDTSTSTAYMELSSLRSEDTAVYYCARVGSGPYYYMDVWGQGTLVTVSSGGGGSGGGGSEVQLVESGGGLVQPGGSLRLSCAASGFTFSNYGMHWIRQAPGKGLEWIAMIYYDSSKMNYADTVKGRFTISRDNAKNSLYLQMNSLRAEDTAVYYCAVPTSHYVVDVWGQGTTVTVSS
VL: QSALTQPRSVSGSPGQSVTISCTGTSSSVGDSIYVSWYQQHPGKAPKLMLYDVTKRPSGVPDRFSGSKSGNTASLTISGLQAEDEADYYCCSYAGTDTLFGGGTKVTVLGGGSGGGGSGAIQMTQSPSSLSASVGDRVTITCQASQDIGNWLAWYQQKPGKSPKLLIYGATSLADGVPSRFSGSRSGTDFTLTISSLQPEDFATYYCLQAYNTPWTFGGGTKVEIKR
notes: DVD-Ig composed from its name; constant regions not assigned
BMP Assay (EC50, nM) [1]: 0.014 nM
EC50 [2]: 5.36 nM

B7: RGMA(AE12-1)-GS-TfR(AB403) (bispecific antibody)
VH: B6 VH
VL: QSALTQPRSVSGSPGQSVTISCTGTSSSVGDSIYVSWYQQHPGKAPKLMLYDVTKRPSGVPDRFSGSKSGNTASLTISGLQAEDEADYYCCSYAGTDTLFGGGTKVTVLGGGSGGGGSGEIVMTQSPATLSVSPGERATLSCQASQDIGNWLAWYQQKPGQSPRLLIYGATSLADGVPARFSGSRSGTEFTLTISSLQSEDFAVYYCLQAYNTPWTFGGGTKVEIKR
notes: DVD-Ig composed from its name; constant regions not assigned; also called RGMA (AE12-1)-GS-AB403 DVD-Ig
BMP Assay (EC50, nM) [1]: < 0.025 nM
EC50 [2]: 4.3 nM

B9: DVD2360 (bispecific antibody)
VH: EVQLVESGGGLVQPGGSLRLSCAASGFTFSNYGMHWIRQAPGKGLEWIAMIYYDSSKMNYADTVKGRFTISRDNAKNSLYLQMNSLRAEDTAVYYCAVPTSHYVVDVWGQGTTVTVSSASTKGPEVQLLESGGGLVQPGGSLRLSCAASGFTFSNYGMSWVRQAPGKGLEWVASIRSGGGRTYYSDNVKGRFTISRDNSKNTLYLQMNSLRAEDTAVYYCVRYDHYSGSSDYWGQGTLVTVSS
VL: EIVMTQSPATLSVSPGERATLSCQASQDIGNWLAWYQQKPGQSPRLLIYGATSLADGVPARFSGSRSGTEFTLTISSLQSEDFAVYYCLQAYNTPWTFGGGTKVEIKRTVAAPDVVMTQSPLSLPVTPGEPASISCKSSQSLLDSDGKTYLNWLLQKPGQSPQRLIYLVSKLDSGVPDRFSGSGSGTDFTLKISRVEAEDVGVYYCWQGTHFPRTFGQGTKVEIKR
notes: DVD-Ig, outer AB403 (TfR), inner AB043 (APP), HG-short/LK-short; dual variable regions only; constant regions not assigned
EC50 [4]: 0.15 nM
Kd (rmTfR (123-763) [6]): 1.7 nM
koff (rmTfR (123-763) [6]): 4.8e-05 s⁻¹
kon (rmTfR (123-763) [6]): 28000 M⁻¹ s⁻¹

B10: DVD2365 (bispecific antibody)
VH: QVQLVQSGAEVKKPGASVKVSCKASGFTFSNYGMHWIRQAPGQGLEWIAMIYYDSSKMNYADTVKGRFTITRDNSTNTLYMELSSLRSEDTAVYYCAVPTSHYVVDVWGQGTTVTVSSASTKGPEVQLLESGGGLVQPGGSLRLSCAASGFTFSNYGMSWVRQAPGKGLEWVASIRSGGGRTYYSDNVKGRFTISRDNSKNTLYLQMNSLRAEDTAVYYCVRYDHYSGSSDYWGQGTLVTVSS
VL: B9 VL
notes: DVD-Ig, outer AB405 (TfR), inner AB043 (APP), HG-short/LK-short; dual variable regions only; constant regions not assigned
EC50 [4]: 3.2 nM
Kd (rmTfR (123-763) [6]): 78 nM
koff (rmTfR (123-763) [6]): 0.000771 s⁻¹
kon (rmTfR (123-763) [6]): 9870 M⁻¹ s⁻¹

Results, then the binder that gave them:

BMP Assay (EC50, nM) [1]: 0.436 nM
EC50 [2]: 30.9 nM
B1: RGMA(AE12-1)-SS-TfR(AB402) (bispecific antibody)
VH: EVQLVQSGAEVKKPGASVKVSCKASGYTFTSHGISWVRQAPGQGLDWMGWISPYSGNTNYAQKLQGRVTMTTDTSTSTAYMELSSLRSEDTAVYYCARVGSGPYYYMDVWGQGTLVTVSSASTKGPEVQLVESGGGLVQPGGSLRLSCAASGFTFSNYGMHWIRQAPGKGLEWIAMIYYDSSKMNYADTVKGRFTISRDNAKNSLYLQMNSLRAEDTAVYYCAVPTSHYVVDVWGQGTTVTVSS
VL: QSALTQPRSVSGSPGQSVTISCTGTSSSVGDSIYVSWYQQHPGKAPKLMLYDVTKRPSGVPDRFSGSKSGNTASLTISGLQAEDEADYYCCSYAGTDTLFGGGTKVTVLGQPKAAPAIQMTQSPSSLSASVGDRVTITCQASQDIGNWLAWYQQKPGKSPKLLIYGATSLADGVPSRFSGSRSGTDFTLTISSLQPEDFATYYCLQAYNTPWTFGGGTKVEIKR
notes: DVD-Ig composed from its name; constant regions not assigned; not shown: short light-chain linker (code S) after a lambda VL

BMP Assay (EC50, nM) [1]: 1.18 nM
EC50 [2]: 71 nM
B2: RGMA(AE12-1)-SS-TfR(AB403) (bispecific antibody)
VH: B1 VH
VL: QSALTQPRSVSGSPGQSVTISCTGTSSSVGDSIYVSWYQQHPGKAPKLMLYDVTKRPSGVPDRFSGSKSGNTASLTISGLQAEDEADYYCCSYAGTDTLFGGGTKVTVLGQPKAAPEIVMTQSPATLSVSPGERATLSCQASQDIGNWLAWYQQKPGQSPRLLIYGATSLADGVPARFSGSRSGTEFTLTISSLQSEDFAVYYCLQAYNTPWTFGGGTKVEIKR
notes: as for B1

BMP Assay (EC50, nM) [1]: 13.2 nM
EC50 [2]: 3.61 nM
B3: TfR(AB404)-LL-RGMA(AE12-1) (bispecific antibody)
chain 1: QVQLVQSGAEVKKPGASVKVSCKASGFTFSNYGMHWIRQAPGQGLEWIAMIYYDSSKMNYADTVKGRFTITRDNSTNTLYMELSSLRSEDTAVYYCAVPTSHYVVDVWGQGTTVTVSSASTKGPSVFPLAPEVQLVQSGAEVKKPGASVKVSCKASGYTFTSHGISWVRQAPGQGLDWMGWISPYSGNTNYAQKLQGRVTMTTDTSTSTAYMELSSLRSEDTAVYYCARVGSGPYYYMDVWGQGTLVTVSS
chain 2: AIQMTQSPSSLSASVGDRVTITCQASQDIGNWLAWYQQKPGKSPKLLIYGATSLADGVPSRFSGSRSGTDFTLTISSLQPEDFATYYCLQAYNTPWTFGGGTKVEIKRTVAAPSVFIFPPQSALTQPRSVSGSPGQSVTISCTGTSSSVGDSIYVSWYQQHPGKAPKLMLYDVTKRPSGVPDRFSGSKSGNTASLTISGLQAEDEADYYCCSYAGTDTLFGGGTKVTVLG

EC50 [3]: 0.09 nM
EC50 [4]: 0.09 nM
Kd (rmTfR (123-763) [5]): 3.8 nM
koff (rmTfR (123-763) [5]): 8.39e-05 s⁻¹
kon (rmTfR (123-763) [5]): 22000 M⁻¹ s⁻¹
B4: AB403 (antibody, V domains shown)
VH: B5 VH
VL: EIVMTQSPATLSVSPGERATLSCQASQDIGNWLAWYQQKPGQSPRLLIYGATSLADGVPARFSGSRSGTEFTLTISSLQSEDFAVYYCLQAYNTPWTFGGGTKVEIKR
notes: humanized variant of AB221; constant regions not assigned; also called TfR(AB403)

EC50 [4]: 0.1 nM
Kd (rmTfR (123-763) [6]): 1.3 nM
koff (rmTfR (123-763) [6]): 4.06e-05 s⁻¹
kon (rmTfR (123-763) [6]): 31300 M⁻¹ s⁻¹
B8: DVD2358 (bispecific antibody)
VH: B9 VH
VL: AIQMTQSPSSLSASVGDRVTITCQASQDIGNWLAWYQQKPGKSPKLLIYGATSLADGVPSRFSGSRSGTDFTLTISSLQPEDFATYYCLQAYNTPWTFGGGTKVEIKRTVAAPDVVMTQSPLSLPVTPGEPASISCKSSQSLLDSDGKTYLNWLLQKPGQSPQRLIYLVSKLDSGVPDRFSGSGSGTDFTLKISRVEAEDVGVYYCWQGTHFPRTFGQGTKVEIKR
notes: DVD-Ig, outer AB402 (TfR), inner AB043 (APP), HG-short/LK-short; dual variable regions only; constant regions not assigned
